These results are taken from PMC4912634.

pKd: −log10 of the molar value.

A word on the pKd: it is the Kd on a negative log10 scale, so that one unit is a factor of ten. The low end stands for a high Kd, the high end for a low Kd.

Sequence of human CPAP PN2-3 domain (aa 319-394), wild type (Q9HC77 319-394): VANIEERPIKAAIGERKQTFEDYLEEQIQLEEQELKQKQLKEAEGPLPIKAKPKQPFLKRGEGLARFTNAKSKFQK
Sequence of PN2-3N peptide (N-terminal helical region of PN2-3, aa 323-361 of CPAP) (Q9HC77 323-361): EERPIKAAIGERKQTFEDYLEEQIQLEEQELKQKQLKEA
Sequence of human CPAP PN2-3 domain (aa 319-394) EE343RR (Q9HC77 other isoform, or with tags, fused parts or gaps): as the sequence (Q9HC77 319-394) above, with E25R, E26R counted along it

For this test, the target named is tubulin heterodimer (porcine/bovine brain tubulin) (not stated (porcine or bovine brain)) (UniProt Q6B856). Description: ITC; PN2-3 proteins/peptides titrated into tubulin in the cell; 15 °C; 1xBRB80 (80 mM PIPES-K, 1 mM MgCl2, 1 mM EGTA, pH 6.8); one set of binding sites model; tubulin 9 μM for wild type and mutant PN2-3.
Substance “PN2-3N peptide (N-terminal helical region of PN2-3, aa 323-361 of CPAP) (from UniProt Q9HC77 323-361)” showed a pKd of 4.17.

In turn, “human CPAP PN2-3 domain (aa 319-394) EE343RR (from UniProt Q9HC77 319-394) (domain or fragment)” gave a pKd of 6.71. This pKd lies 2.54 log units higher than the previous one.

Take “human CPAP PN2-3 domain (aa 319-394), wild type (from UniProt Q9HC77 319-394) (domain or fragment)”: the pKd is 7.59.

“human CPAP PN2-3 domain (aa 319-394) F375A (from UniProt Q9HC77 319-394) (domain or fragment)” had a negative logarithm of the Kd (pKd) of 5.55. This pKd lies 2.04 log units lower than the previous one.
